Consider 15 molecules from patent US20190071480A1 (Biogen, published 2019).

Test [1] addresses T1, extracellular domain of activin receptor type IIB (ActRIIBecd), biotinylated (Homo sapiens (Human), UniProt Q13705 27-117, amino-biotinylated with amine-PEG3-Biotin).
T1 construct: immobilised on a streptavidin-coated sensor chip; also called biotinylated ActRIIBecd; extracellular domain of ActRIIB
T1 sequence: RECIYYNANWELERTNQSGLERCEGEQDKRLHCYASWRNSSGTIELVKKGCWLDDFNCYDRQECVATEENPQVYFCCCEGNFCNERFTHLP
In words: BIAcore SPR as Example 5 (method not restated); SD ±1.32 nM. As for the experimental part:
(§1) Biosensor experiments. In one embodiment, experiments were performed on a BIAcore™ T100/T200 instrument (Pharmacia Biosensor AB) in the multichannel mode (serial flow path involving flow cells 1+2+3+4). Flow rate was 10 μl/min; temperature was 25° C.; and data were recorded at 2.5 points/s. All four segments of a sensor chip CMS were coated with streptavidin (Sigma) to a density of 2000 pg/mm² (2000 resonance units) by the aminocoupling procedure. ActRIIBecd (10 mg) and amine-PEG3-Biotin (10 mg, Pierce, Rockford, Ill.) were dissolved in 200 μl H₂O and 10 mg NaCNBH₃ was added to prepare biotinylated ActRIIBecd. The reaction mixture was heated at 70° C. for 24 h, after that a further 10 mg NaCNBH₃ was added and the reaction was heated at 70° C. for another 24 h. After cooling to room temperature, the mixture was desalted with the spin column (3,000 molecular weight cut off (MWCO)). […] Sensograms were recorded during flow of the analyte (the ActRIIBecd-associated polypeptides (i.e., domains) as previously described) first through flow cell 1 (control) then through flow cell 2 (biotinylated ActRIIBecd). […] The sensograms obtained at 1.11, 3.33, 10, 30, and 90 nM analyte were evaluated for equilibrium binding, association rate, and dissociation rate by using the programs supplied with the instrument (BIA evaluation 2.1; Software Handbook. 1995; Pharmacia Biosensor AB).
A general note: In SPR one partner is held on a chip, and binding of the other changes the refractive index at the surface.

The target in test [2] is T1, extracellular domain of activin …. In words: Mean KD column of Table 5; method not restated (BIAcore as Example 5); species also listed in Table 4. An outline of the steps: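 Kinetics read-out: ka, kd and equilibrium binding, fitted from sensograms after blank-cell subtraction. Setup comprised a streptavidin chip, biotin-ActRIIBecd loaded at 50-250 RU, analytes in glycine pH 4.5, flow 10 μl/min, temperature 25° C.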

Test [3] has the same target. In words: BIAcore SPR as Example 5 (method not restated); SD ±2.08 nM. How it is done: as §1
The target is the same in test [4]. In words: BIAcore SPR as Example 5 (method not restated); SD ±0.75 nM. As for the experimental part:
as §1

For test [5] the target is unchanged. In words: BIAcore SPR as Example 5 (method not restated); SD ±2.71 nM. How it is done:
as §1

Test [6] shares this target. In words: BIAcore SPR as Example 5 (method not restated); SD ±1.12 nM. As for the experimental part: as §1
For test [7] the target is unchanged. Kind of test: BIAcore SPR as Example 5 (method not restated); SD ±0.96 nM. How it is done: as §1
Test [8] shares this target. Kind of test: BIAcore SPR as Example 5 (method not restated); SD ±1.03 nM. As for the experimental part: as §1
For test [9] the target is unchanged. Kind of test: BIAcore SPR as Example 5 (method not restated); SD ±2.14 nM. How it is done: as §1
For test [10] the target is unchanged. Kind of test: BIAcore SPR as Example 5 (method not restated); SD ±3.01 nM. How it is done:
as §1

Test [11] has the same target. Kind of test: BIAcore SPR as Example 5 (method not restated); SD ±2.39 nM. How it is done: as §1
The target is the same in test [12]. In words: BIAcore SPR as Example 5 (method not restated); SD ±1.65 nM. How it is done: as §1
Test [13] has the same target. In words: BIAcore SPR as Example 5 (method not restated); SD ±2.05 nM. As for the experimental part:
as §1

For test [14] the target is unchanged. Kind of test: BIAcore SPR, biotinylated ActRIIBecd on chip; SD ±12.79 nM. How it is done: as §1
For test [15] the target is unchanged. Kind of test: BIAcore SPR as Example 5 (method not restated); SD ±1.60 nM. How it is done:
as §1

For test [16] the target is unchanged. In words: BIAcore SPR as Example 5 (method not restated); SD ±2.35 nM. How it is done:
as §1

Broadly, the Kd is the free concentration of one partner at which half of the binding sites on the other are occupied at equilibrium, for simple one-to-one binding. Higher therefore signals a looser complex.

B1: SEQ ID NO: 268, cysteine pairs C23-C27^a, C65-C65^b, C79-C112^a, C80-C114^a (designed binder)
chain: VDFSDVGWNDWIVAPPGYHAFYCHGECPFPLADHLNSTNHAIVQTLVNSVAQAKHKQRKRLKSSCKRHPLYNSKIPKACCVPTELSAISMLYLDENEKVVLKNYQDMVVEGCGCR
modifications: disulfides C23-C27 (intra), C65-C65 (inter), C79-C112 (intra), C80-C114 (intra)
notes: homodimer by intermolecular disulfide
In the case of B1, the Kd in [1] and in test [2] was 7.21 nM in each case.

B2: SEQ ID NO: 268, cysteine pairs C23-C27^a, C65-C65^b, C79-C114^a, C80-C112^a (designed binder)
chain: VDFSDVGWNDWIVAPPGYHAFYCHGECPFPLADHLNSTNHAIVQTLVNSVAQAKHKQRKRLKSSCKRHPLYNSKIPKACCVPTELSAISMLYLDENEKVVLKNYQDMVVEGCGCR
modifications: disulfides C23-C27 (intra), C65-C65 (inter), C79-C114 (intra), C80-C112 (intra)
notes: as for B1
In the case of B2, the Kd in test [3] and in test [2] was 8.74 nM each time.

B3: SEQ ID NO: 268, cysteine pairs C23-C27^a, C65-C65^b, C79-C112^b, C80-C114^b (designed binder)
chain: VDFSDVGWNDWIVAPPGYHAFYCHGECPFPLADHLNSTNHAIVQTLVNSVAQAKHKQRKRLKSSCKRHPLYNSKIPKACCVPTELSAISMLYLDENEKVVLKNYQDMVVEGCGCR
modifications: disulfides C23-C27 (intra), C65-C65 (inter), C79-C112 (inter), C80-C114 (inter)
notes: as for B1
For B3, the equilibrium dissociation constant (Kd) in [4] and in [2] was 7.96 nM in each case.

B4: SEQ ID NO: 268, cysteine pairs C23-C79^a (designed binder)
chain: VDFSDVGWNDWIVAPPGYHAFYCHGECPFPLADHLNSTNHAIVQTLVNSVAQAKHKQRKRLKSSCKRHPLYNSKIPKACCVPTELSAISMLYLDENEKVVLKNYQDMVVEGCGCR
modifications: disulfides C23-C79 (intra)
With B4, the Kd in [5] and in test [2] was 29.6 nM throughout.

B5: SEQ ID NO: 260, cysteine pairs C15-C80^a, C44-C112^a, C48-C114^a, C79-C79^b (designed binder)
chain: AQAKHKQRKRLKSSCKRHPLYVDFSDVGWNDWIVAPPGYHAFYCHGECPFPLADHLNSTNHAIVQTLVNSVNSKIPKACCVPTELSAISMLYLDENEKVVLKNYQDMVVEGCGCR
modifications: disulfides C15-C80 (intra), C44-C112 (intra), C48-C114 (intra), C79-C79 (inter)
notes: as for B1
In the case of B5, the Kd in test [6] and in [2] was 6.56 nM each time.

B6: SEQ ID NO: 260, cysteine pairs C80-C114^b, C79-C112^b, C44-C48^a (designed binder)
chain: AQAKHKQRKRLKSSCKRHPLYVDFSDVGWNDWIVAPPGYHAFYCHGECPFPLADHLNSTNHAIVQTLVNSVNSKIPKACCVPTELSAISMLYLDENEKVVLKNYQDMVVEGCGCR
modifications: disulfides C80-C114 (inter), C79-C112 (inter), C44-C48 (intra)
notes: as for B1
Take B6: the Kd in [7] and in [2] was 6.89 nM in each case.

B7: SEQ ID NO: 260, cysteine pairs C15-C15^b, C79-C114^a, C80-C112^a, C44-C48^a (designed binder)
chain: AQAKHKQRKRLKSSCKRHPLYVDFSDVGWNDWIVAPPGYHAFYCHGECPFPLADHLNSTNHAIVQTLVNSVNSKIPKACCVPTELSAISMLYLDENEKVVLKNYQDMVVEGCGCR
modifications: disulfides C15-C15 (inter), C79-C114 (intra), C80-C112 (intra), C44-C48 (intra)
notes: as for B1
As for B7, the Kd in test [8] and in test [2] was 7.64 nM in each case.

B8: SEQ ID NO: 248, cysteine pairs C67-C71^a, C8-C43^a, C9-C41^a (designed binder)
chain: NSKDPKACCVPTELSAPSPLYLDENEKPVLKNYQDMVVHGCGCRVDFKDVGWNDHAVAPPGYHAFYCHGECPFPLADHLNSDNHAIVQTKVNSV
modifications: disulfides C67-C71 (intra), C8-C43 (intra), C9-C41 (intra)
Take B8: the Kd in [9] and in test [2] was 20 nM throughout.

B9: SEQ ID NO: 248, cysteine pairs C67-C71^a, C8-C43^b, C9-C41^b (designed binder)
chain: NSKDPKACCVPTELSAPSPLYLDENEKPVLKNYQDMVVHGCGCRVDFKDVGWNDHAVAPPGYHAFYCHGECPFPLADHLNSDNHAIVQTKVNSV
modifications: disulfides C67-C71 (intra), C8-C43 (inter), C9-C41 (inter)
notes: as for B1
As to B9, the Kd in test [10] and in [2] was 19.2 nM in each case.

B10: SEQ ID NO: 254, cysteine pairs C23-C27^a, C58-C93^a, C59-C91^a (designed binder)
chain: VDFKDVGWNDHAVAPPGYHAFYCHGECPFPLADHLNSDNHAIVQTKVNSVNSKDPKACCVPTELSAPSPLYLDENEKPVLKNYQDMVVHGCGCR
modifications: disulfides C23-C27 (intra), C58-C93 (intra), C59-C91 (intra)
Take B10: the Kd in test [11] and in test [2] was 19.1 nM each time.

B11: SEQ ID NO: 254, cysteine pairs C23-C27^a, C58-C91^b, C59-C93^b (designed binder)
chain: VDFKDVGWNDHAVAPPGYHAFYCHGECPFPLADHLNSDNHAIVQTKVNSVNSKDPKACCVPTELSAPSPLYLDENEKPVLKNYQDMVVHGCGCR
modifications: disulfides C23-C27 (intra), C58-C91 (inter), C59-C93 (inter)
notes: as for B1
B11: the equilibrium dissociation constant (Kd) in [12] and in test [2] was 18.7 nM in each case.

B12: SEQ ID NO: 254, cysteine pairs C23-C58^a (designed binder)
chain: VDFKDVGWNDHAVAPPGYHAFYCHGECPFPLADHLNSDNHAIVQTKVNSVNSKDPKACCVPTELSAPSPLYLDENEKPVLKNYQDMVVHGCGCR
modifications: disulfides C23-C58 (intra)
B12: the Kd in test [13] and in test [2] was 44.4 nM each time.

B13: Clone No. 14 domain (ActRIIBecd-associated polypeptide) (peptide)
chain: VDFKDVGWNDHAVAPPGYHAFYCHGECPFPLADHLNSDNHAIVQTKVNSV
In the case of B13, the affinity in [14], expressed as Kd, was 38.3 nM.

B14: SEQ ID NO: 276, cysteine pairs C67-C71^a, C8-C41^a, C9-C43^a, C109-C109^b (designed binder)
chain: NSKIPKACCVPTELSAISMLYLDENEKVVLKNYQDMVVEGCGCRVDFSDVGWNDWIVAPPGYHAFYCHGECPFPLADHLNSTNHAIVQTLVNSVAQAKHKQRKRLKSSCKRHPLY
modifications: disulfides C67-C71 (intra), C8-C41 (intra), C9-C43 (intra), C109-C109 (inter)
notes: as for B1
Consider B14, for which the Kd in [15] and in test [2] was 5.71 nM throughout.

B15: SEQ ID NO: 276, cysteine pairs C8-C9^a (designed binder)
chain: NSKIPKACCVPTELSAISMLYLDENEKVVLKNYQDMVVEGCGCRVDFSDVGWNDWIVAPPGYHAFYCHGECPFPLADHLNSTNHAIVQTLVNSVAQAKHKQRKRLKSSCKRHPLY
modifications: disulfides C8-C9 (intra)
B15: the Kd in [16] and in [2] was 27.9 nM throughout.
